From patent US9994628B2, “Peptides and combination of peptides for use in immunotherapy against various tumors” (IMMATICS BIOTECHNOLOGIES GMBH, priority 2015, dated 2018)

Biological target: HLA-A*02:01 (Homo sapiens, UniProt P04439, D140Y/D185E/D98H/E176V/E277Q/G131W/G231S/I119V/I121R/I166T/I218V/L300P/L318F/N151K/N90K/P208A/P217A/Q86G/Q94H/R138H/R169H/T345S)
Assay: MHC binding assay: UV-ligand exchange and β2m ELISA (peptide exchange yield, Table 7)
Settings: binding of HLA-class I restricted peptides to HLA-A*02:01, UV-ligand exchange
Text: Candidate peptides for T cell based therapies according to the present invention were further tested for their MHC binding capacity (affinity). The individual peptide-MHC complexes were produced by UV-ligand exchange, where a UV-sensitive peptide is cleaved upon UV-irradiation, and exchanged with the peptide of interest as analyzed. Only peptide candidates that can effectively bind and stabilize the peptide-receptive MHC molecules prevent dissociation of the MHC complexes. To determine the yield of the exchange reaction, an ELISA was performed based on the detection of the light chain (β2 m) of stabilized MHC complexes. The assay was performed as generally described in Rodenko et al. (Rodenko et al., 2006).
96 well MAXISorp plates (NUNC) were coated over night with 2 ug/ml streptavidin in PBS at room temperature, washed 4× and blocked for 1 h at 37° C. in 2% BSA containing blocking buffer. Refolded HLA-A*02:01/MLA-001 monomers served as standards, covering the range of 15-500 ng/ml. Peptide-MHC monomers of the UV-exchange reaction were diluted 100 fold in blocking buffer. Samples were incubated for 1 h at 37° C., washed four times, incubated with 2 ug/ml HRP conjugated anti-β2 m for 1 h at 37° C., washed again and detected with TMB solution that is stopped with […]. Absorption was measured at 450 nm. Candidate peptides that show a high exchange yield (preferably higher than 50%, most preferred higher than 75%) are generally preferred for a generation and production of antibodies or fragments thereof, and/or T cell receptors or fragments thereof, as they show sufficient avidity to the MHC molecules and prevent dissociation of the MHC complexes.

In the case of “200 (IMPTFDLTKV; listed as Homo sapiens) [compound 200]”, the “Peptide exchange (MHC class I binding score, peptide exchange yield)” value (shortened to “Peptide exchange”) is reported as “+++ (≥50% = +++)”.

For “57 (TLYPGRFDYV; listed as Homo sapiens) [compound 57]”, the “Peptide exchange” value was “++ (≥20% = ++)”.

For “207 (KLFETVEEL; listed as Homo sapiens) [compound 207]”, the “Peptide exchange” value was “+++ (≥50% = +++)”.

“94 (YLDEVAFML; listed as Homo sapiens) [compound 94]” was tested, and the “Peptide exchange” value was “+++ (≥50% = +++)”.

With “265 (FLLDKPQDLSI; listed as Homo sapiens) [compound 265]” the “Peptide exchange” value was “+++ (≥50% = +++)”.

In the case of “119 (SLIEESEEL; listed as Homo sapiens) [compound 119]”, the “Peptide exchange” value is reported as “++ (≥20% = ++)”.

With “144 (FLISQTPLL; listed as Homo sapiens) [compound 144]” the “Peptide exchange” value was “+++ (≥50% = +++)”.

For “191 (AAIEIFEKV; listed as Homo sapiens) [compound 191]”, the “Peptide exchange” value was “+++ (≥50% = +++)”.

In the case of “147 (GLLSALENV; listed as Homo sapiens) [compound 147]”, the “Peptide exchange” value is reported as “+++ (≥50% = +++)”.

For “13 (RLHDENILL; listed as Homo sapiens) [compound 13]”, the “Peptide exchange” value was “+++ (≥50% = +++)”.

With “48 (KISDFGLATV; listed as Homo sapiens) [compound 48]” the “Peptide exchange” value was “+++ (≥50% = +++)”.

In the case of “29 (KMISAIPTL; listed as Homo sapiens) [compound 29]”, the “Peptide exchange” value is reported as “++ (≥20% = ++)”.

With “88 (LLLPLELSLA; listed as Homo sapiens) [compound 88]” the “Peptide exchange” value was “+++ (≥50% = +++)”.

In the case of “203 (FLFVDPELV; listed as Homo sapiens) [compound 203]”, the “Peptide exchange” value is reported as “++ (≥20% = ++)”.

In the case of “221 (IMLNSVEEI; listed as Homo sapiens) [compound 221]”, the “Peptide exchange” value is reported as “++ (≥20% = ++)”.

For “242 (KLQEEIPVL; listed as Homo sapiens) [compound 242]”, the “Peptide exchange” value was “+++ (≥50% = +++)”.

In the case of “150 (VLLDMVHSL; listed as Homo sapiens) [compound 150]”, the “Peptide exchange” value is reported as “+++ (≥50% = +++)”.

“219 (GVVPTIQKV; listed as Homo sapiens) [compound 219]” was tested, and the “Peptide exchange” value was “++ (≥20% = ++)”.

For “272 (FVMEGEPPKL; listed as Homo sapiens) [compound 272]”, the “Peptide exchange” value was “++ (≥20% = ++)”.

For “214 (ALFETLIQL; listed as Homo sapiens) [compound 214]”, the “Peptide exchange” value was “+++ (≥50% = +++)”.

For “155 (TLDSYLKAV; listed as Homo sapiens) [compound 155]”, the “Peptide exchange” value was “++ (≥20% = ++)”.

With “70 (GLTEKTVLV; listed as Homo sapiens) [compound 70]” the “Peptide exchange” value was “++ (≥20% = ++)”.

“93 (RLYGYFHDA; listed as Homo sapiens) [compound 93]” was tested, and the “Peptide exchange” value was “++ (≥20% = ++)”.

With “30 (IITEVITRL; listed as Homo sapiens) [compound 30]” the “Peptide exchange” value was “+++ (≥50% = +++)”.

“6 (FLNAIETAL; listed as Homo sapiens) [compound 6]” was tested, and the “Peptide exchange” value was “++++ (≥75% = ++++)”.

“184 (ALDSTIAHL; listed as Homo sapiens) [compound 184]” was tested, and the “Peptide exchange” value was “++ (≥20% = ++)”.

In the case of “216 (ALSTVTPRI; listed as Homo sapiens) [compound 216]”, the “Peptide exchange” value is reported as “++ (≥20% = ++)”.

In the case of “198 (ILTNKVVSV; listed as Homo sapiens) [compound 198]”, the “Peptide exchange” value is reported as “++ (≥20% = ++)”.

In the case of “274 (TLYNPERTITV; listed as Homo sapiens) [compound 274]”, the “Peptide exchange” value is reported as “+++ (≥50% = +++)”.

For “225 (FLPQPVPLSV; listed as Homo sapiens) [compound 225]”, the “Peptide exchange” value was “+++ (≥50% = +++)”.

“16 (SLADLSLLL; listed as Homo sapiens) [compound 16]” was tested, and the “Peptide exchange” value was “+++ (≥50% = +++)”.

In the case of “281 (LLLESDPKVYSL; listed as Homo sapiens) [compound 281]”, the “Peptide exchange” value is reported as “++ (≥20% = ++)”.

With “84 (FLLEREQLL; listed as Homo sapiens) [compound 84]” the “Peptide exchange” value was “++++ (≥75% = ++++)”.

“275 (AVPPPPSSV; listed as Homo sapiens) [compound 275]” was tested, and the “Peptide exchange” value was “++ (≥20% = ++)”.

In the case of “107 (RVLPGQAVTGV; listed as Homo sapiens) [compound 107]”, the “Peptide exchange” value is reported as “++ (≥20% = ++)”.

With “117 (TLLEGISRA; listed as Homo sapiens) [compound 117]” the “Peptide exchange” value was “++ (≥20% = ++)”.

In the case of “182 (GLQDGFQITV; listed as Homo sapiens) [compound 182]”, the “Peptide exchange” value is reported as “+++ (≥50% = +++)”.

In the case of “89 (SLAETIFIV; listed as Homo sapiens) [compound 89]”, the “Peptide exchange” value is reported as “+++ (≥50% = +++)”.

“58 (HLLGEGAFAQV; listed as Homo sapiens) [compound 58]” was tested, and the “Peptide exchange” value was “+++ (≥50% = +++)”.

“280 (HLWGHALFL; listed as Homo sapiens) [compound 280]” was tested, and the “Peptide exchange” value was “+++ (≥50% = +++)”.

“110 (QIQGQVSEV; listed as Homo sapiens) [compound 110]” was tested, and the “Peptide exchange” value was “++ (≥20% = ++)”.

For “33 (TLDRNSLYV; listed as Homo sapiens) [compound 33]”, the “Peptide exchange” value was “++ (≥20% = ++)”.

In the case of “64 (SLYAGSNNQV; listed as Homo sapiens) [compound 64]”, the “Peptide exchange” value is reported as “++ (≥20% = ++)”.

In the case of “234 (VLLNEILEQV; listed as Homo sapiens) [compound 234]”, the “Peptide exchange” value is reported as “++++ (≥75% = ++++)”.

“226 (SLAGNLQEL; listed as Homo sapiens) [compound 226]” was tested, and the “Peptide exchange” value was “+++ (≥50% = +++)”.

“159 (QLGPVPVTI; listed as Homo sapiens) [compound 159]” was tested, and the “Peptide exchange” value was “+++ (≥50% = +++)”.

For “27 (GLLGKVTSV; listed as Homo sapiens) [compound 27]”, the “Peptide exchange” value was “+++ (≥50% = +++)”.

“220 (ALSELERVL; listed as Homo sapiens) [compound 220]” was tested, and the “Peptide exchange” value was “+++ (≥50% = +++)”.

In the case of “26 (VLDGKVAVV; listed as Homo sapiens) [compound 26]”, the “Peptide exchange” value is reported as “+++ (≥50% = +++)”.

In the case of “137 (KLIYKDLVSV; listed as Homo sapiens) [compound 137]”, the “Peptide exchange” value is reported as “++ (≥20% = ++)”.

With “243 (GLAEFQENV; listed as Homo sapiens) [compound 243]” the “Peptide exchange” value was “++ (≥20% = ++)”.

In the case of “277 (KLQEELNKV; listed as Homo sapiens) [compound 277]”, the “Peptide exchange” value is reported as “+++ (≥50% = +++)”.

With “82 (ILAEEPIYIRV; listed as Homo sapiens) [compound 82]” the “Peptide exchange” value was “+++ (≥50% = +++)”.

“3 (RVIDDSLVVGV; listed as Homo sapiens) [compound 3]” was tested, and the “Peptide exchange” value was “+++ (≥50% = +++)”.

“230 (KLLNMIFSI; listed as Homo sapiens) [compound 230]” was tested, and the “Peptide exchange” value was “+++ (≥50% = +++)”.

“113 (FLFLKEVKV; listed as Homo sapiens) [compound 113]” was tested, and the “Peptide exchange” value was “++ (≥20% = ++)”.

For “141 (NIDINNNEL; listed as Homo sapiens) [compound 141]”, the “Peptide exchange” value was “++ (≥20% = ++)”.
